# Assay results taken from article PMC13469128.
# Assays:
# CD47 (Mus musculus) = CD47 (Mus musculus) (UniProt Q61735); details: cited from earlier work
# CD47 (Homo sapiens) = CD47 (Homo sapiens) (UniProt Q08722); details: cited from earlier work
# [1] = biological target: human CD47 on cells (human (endogenous in HCT116, MDA-MB-468, OVCAR3, HUVEC, C5120)) (UniProt Q08722)
# Sequence of SIRPα-Fc (P78324 31-373): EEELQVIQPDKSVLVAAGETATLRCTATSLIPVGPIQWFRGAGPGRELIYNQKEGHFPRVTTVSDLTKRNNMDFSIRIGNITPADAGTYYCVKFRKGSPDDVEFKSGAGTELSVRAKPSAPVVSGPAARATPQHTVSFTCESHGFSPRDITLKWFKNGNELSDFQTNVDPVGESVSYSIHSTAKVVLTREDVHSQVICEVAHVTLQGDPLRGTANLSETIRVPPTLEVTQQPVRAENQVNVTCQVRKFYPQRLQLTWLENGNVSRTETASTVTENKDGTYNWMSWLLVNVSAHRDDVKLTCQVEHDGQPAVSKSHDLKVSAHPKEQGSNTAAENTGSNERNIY
# Sequence of UniProt Q61735 (Q61735 19-303): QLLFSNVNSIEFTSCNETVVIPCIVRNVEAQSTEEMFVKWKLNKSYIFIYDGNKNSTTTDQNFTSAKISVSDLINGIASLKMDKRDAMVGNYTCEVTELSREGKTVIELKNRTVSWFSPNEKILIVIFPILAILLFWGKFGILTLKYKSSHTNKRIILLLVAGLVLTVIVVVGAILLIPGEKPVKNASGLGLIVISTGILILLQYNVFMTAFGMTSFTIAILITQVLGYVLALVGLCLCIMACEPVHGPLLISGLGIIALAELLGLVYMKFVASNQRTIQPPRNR
"macrophage ADCP on-chip of MDA-MB-468 cells, fold increase over the background; AdV delivery of SIRPα-Fc alone (blocks the CD47-SIRPα axis) [1]",Substance,Kd (CD47 (Mus musculus)),Kd (CD47 (Homo sapiens))
–,SIRPα-Fc (from UniProt P78324),58 nM,1 nM
1.7 fold,SIRPα-Fc fusion protein,–,–
